Results from patent publication US20260234236A1 (INTERVET, published 2026).

T1: Recombinant canine IL-13 (R&D Systems, Catalog: 5894-CL/CF) (canine, UniProt Q9N0W9 19-131, limits assumed)
T1 sequence (looked up): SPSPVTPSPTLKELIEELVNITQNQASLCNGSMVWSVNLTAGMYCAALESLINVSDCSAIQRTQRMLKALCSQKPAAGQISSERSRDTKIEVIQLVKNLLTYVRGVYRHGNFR

T2: Canine IL-13 with C-terminal Avi-HIS tag (canine, biotin label when loaded on SA biosensors (Example 4); site not stated)
T2 construct: also called cIL-13; biotinylated avitag-cIL13
T2 chain: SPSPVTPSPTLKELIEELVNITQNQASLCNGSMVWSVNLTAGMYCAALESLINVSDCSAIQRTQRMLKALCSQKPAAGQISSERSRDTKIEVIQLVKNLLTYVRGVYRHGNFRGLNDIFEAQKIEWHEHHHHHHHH

T3: Recombinant canine IL-4 (R&D Systems, Catalog: 752-CL/CF) (canine, UniProt O77762 25-132)
T3 sequence (looked up): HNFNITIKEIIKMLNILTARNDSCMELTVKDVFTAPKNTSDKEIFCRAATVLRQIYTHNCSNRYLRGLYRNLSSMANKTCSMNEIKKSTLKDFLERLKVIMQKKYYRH

T4: Canine IL-4 with C-terminal Avi-HIS tag (canine, biotin label when loaded on SA biosensors (Example 4); site not stated)
T4 construct: also called cIL-4; biotinylated avitag-cIL-4
T4 chain: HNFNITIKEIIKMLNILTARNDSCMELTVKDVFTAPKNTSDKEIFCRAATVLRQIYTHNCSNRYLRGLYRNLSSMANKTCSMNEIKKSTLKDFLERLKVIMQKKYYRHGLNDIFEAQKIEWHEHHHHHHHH

B1: IL13-P3-1G5VH-cIgGB/IL13-P3-1G5VL-cCL (antibody, V domains shown)
VH: EVQLVQSGGDLVKPGGTLRLSCVASGFTFSSYDMSWVRQSPGKGLQWVAAIWNDGSNTEYADAVKGRFTVSRDNAKNTVYLEMNSLRAEDTAMYYCVKEGPSYGYFDYWGQGTLVTVSS
VL: SYELTQPPSVSVSLGQTATISCSGESLSKYYAQWFQQKAGQAPVLVIYQDTERPSGIPDRFSGSSSGNTHTLTISGARAEDEADYYCESAISPDTYVFGSGTQLTILG
notes: Full-length canine IgG-B; also called IL13-1G5
B2: IL13-P3-1C6VH-cIgGB/IL13-P3-1C6VL-cCL (antibody, V domains shown)
VH: ELTLQESGPGLVKPSQTLSLTCVVSGGSVTNTYEWDWIRQRPGRGLEWMGSWTDNTWYNPAFQGRISITADTAKNQLSLQLSSVTTGDTAVYFCARWTKRWGYDYWGQGTLVTVSS
VL: QSVLTQPASVSGSLGQRVTISCSGRTNNIGYFGANWYQQVPGKAPKLLVSSYGNRPSGVPDRFSASNSANSATLTITGLQAEDEADYYCQSFDTTLGAVVFGGGTQLTVLG
B3: IL4-P4A-2D11VH-cIgGB/IL4-P4A-2D11VL-cCL (antibody, V domains shown)
VH: EEQLVEFGGDLVKPGESLRLSCVASGFTFNKYDMSWVRQAPGKGLQWVATVADDESFAYYTDSVKGRFTISRDNAKNTLYLQMNSLRAEDTAMYYCVGKTGSYWDIDFDLWGPGTLVTISS
VL: QAVLTQPPSVSAALGQRVTISCSGSTDNVGTVGASWYQHLPGRAPKLLVYIVGDRPSGVPDRFSGSKSGTSATLTITGLQAEDEADYYCSSWDDSLRGIVFGGGTHLTVLG
notes: Full-length canine IgG-B; also called IL4-2D11
B4: IL13-P3-05VH-cIgGB/IL13-P3-05VL-cCL (antibody, V domains shown)
VH: EVQLVESGGDSVRPGGSLRLSCVASGFTFSRYNMGWVRQAPGKGLQWVAWIYDGGSRTSYADAVKGRFTISRDNAKDTLYLQMDDLRVDDTAVYYCARDPSSWGSLFDYWGQGTLVTVSS
VL: SYVLTQPPSVTVPLRQTARISCGGDNIRSKNVHWYQQKPGQAPVLIIYNDSNRPTGIPERFSGSNSGNMATLTIRGALAEDEADYYCQVWANDGYVFGSGTQLTVLG
notes: Full-length canine IgG-B
B5: IL13-P3-05VH-cIgGB/IL13-P3-05VLm-cCL (antibody, V domains shown)
VH: EVQLVESGGDSVRPGGSLRLSCVASGFTFSRYNMGWVRQAPGKGLQWVAWIYDGGSRTSYADAVKGRFTISRDNAKDTLYLQMDDLRVDDTAVYYCARDPSSWGSLFDYWGQGTLVTVSS
VL: SYVLTQPPSVTVPLRQTARISCGGDNIRSKNVHWYQQKPGQAPVLIIYQDSNRPTGIPERFSGSNSGNMATLTIRGALAEDEADYYCQVWANDGYVFGSGTQLTVLG
notes: Full-length canine IgG-B. The light chain has N replaced by Q in CDRL2 to remove a potential glycosylation site; also called IL13-P3-05Lm; IL-13 P3-05Lm
B6: IL13-P3-1B4VH-cIgGB/IL13-P3-1B4VL-cCL (antibody)
heavy: ELTLQESGPGLVKPSQTLSLTCVVSGGSVTSNYYWNWIRQRPGRGLEWMGYWTGSTNYNPAFQGRISITADTAKNHFSLQLTSMTTEDTAVYYCARASTWLHGMDFWGHGTSLFVSSASTTAPSVFPLAPSCGSTSGSTVALACLVSGYFPEPVTVSWNSGSLTSGVHTFPSVLQSSGLYSLSSMVTVPSSRWPSETFTCNVAHPASKTKVDKPVPKRENGRVPRPPDCPKCPAPEMLGGPSVFIFPPKPKDTLLIARTPEVTCVVVDLDPEDPEVQISWFVDGKQMQTAKTQPREEQFNGTYRVVSVLPIGHQDWLKGKQFTCKVNNKALPSPIERTISKARGQAHQPSVYVLPPSREELSKNTVSLTCLIKDFFPPDIDVEWQSNGQQEPESKYRTTPPQLDEDGSYFLYSKLSVDKSRWQRGDTFICAVMHEALHNHYTQESLSHSPGK
light: SYVLTQSPSVSGSLGQTVTISCSGTTIGVVGANWYQQLPGKAPKLLVHSDGGRLSGVPDRFSGSESGNSAALTITGLQAEDEADYYCQSFDTTLGYVFGSGTQLTILGQPKASPSVTLFPPSSEELGANKATLVCLISDFYPSGVTVAWKADGSPVTQGVETTKPSKQSNNKYAASSYLSLTPDKWKSHSSFSCLVTHEGSTVEKKVAPAECS
notes: Full-length canine IgG-B; also called IL13-1B4
B7: IL4-P4A-1A10VH-cIgGB/IL4-P4-1A10VL-cCL (antibody, V domains shown)
VH: EVQLVESGGDLVKPGGSLRLSCVASGFTFSDYDMTWVRQAPGKGLQWVADINNGGSSTTYADAVKGRFTISRDNAKNTLYLQMNSLRAEDTAMYYCAKEGDNTWLSFDSWGQGTLVTVSS
VL: QSVLNQLPSVSGSLGQKVTIRCSGNTDNIGMVGAAWYRQVPGEAPKLLLYSDGNRPSGVPDRFSGSDSGRSATLTITGLQPEDEADYYCQSLDPTVPGNYLFGSGTQLTILG
notes: also called IL4-P4-1A10VH-cIgGB/IL4-P4-1A10VL-cCL

Tests used:
[1] = molecular target: T1, Recombinant canine IL-13 (R&D Systems, …); assay: cell-based or functional assay
[2] = molecular target: T2, Canine IL-13 with C-terminal Avi-HIS tag; assay: BLI (OCTET HTX); biotin-mAb on SA biosensors, cIL-13 in solution; 1:1 model
Experimental: (§1) Selected scFv specific to cIL-4 or cIL-13 were converted into full length canine IgG mAbs and tested for binding by OCTET. All kinetics measurements were performed by OCTET HTX using SA biosensors and Data Acquisition 12.0 software. First, each biotin-labeled full-length anti-canine IL-4 or anti-canine IL-13 mAb, at a concentration of 5 μg/mL, were loaded onto the pre-rehydrated SA biosensors until binding signal change ascended to a […] threshold for all channels from the step start or for a maximum of 1200s to insure equal loading density. Second, the biosensors were placed into OCTET Kinetics Buffer (PBS+0.02% Tween20, 0.1% BSA) for the blocking phase for 60s. Third, for the association phase, full-length anti-canine IL-4 mAb or anti-canine IL-13 mAb loaded biosensors were placed into 2-fold serial dilutions from 1000 nM down to 15.6 nM of cIL-4 or cIL-13, respectively, in OCTET Kinetics Buffer for 60s. The last well was buffer alone and that sensor was used for reference sensor subtraction. Finally, the biosensors were placed into OCTET Kinetics Buffer for the dissociation phase for 180s. Analysis was performed using Data Analysis 12.0 software and curves were fitted using a 1:1 binding model.

[3] = molecular target: T3, Recombinant canine IL-4 (R&D Systems, …); assay: cell-based or functional assay
[4] = molecular target: T4, Canine IL-4 with C-terminal Avi-HIS tag; assay: DSS cross-linking and High-Mass MALDI MS
Description: In order to identify potentially discontinuous epitopes recognized by the antibodies of the present invention to their respective antigens, e.g., canine IL-4 or canine IL-13, a method was employed that was based on chemical crosslinking using disuccinimidyl suberate (DSS) and mass spectrometry detection (XL-MS) at CovalX Inc. (CovalX® Instrument Incorporated; Covalx.com). With this method, the binding of a canine antibody to its corresponding canine antigen in the presence of a mass-labeled chemical crosslinker is performed. The cross-linking experiments allow the direct analysis of non-covalent interaction by High-Mass MALDI (matrix assisted laser desorption ionization) mass spectrometry. […] The covalent binding generated allows the interacting species to survive the sample preparation process and the MALDI ionization. A High-Mass detection system allows characterizing the interaction in the High-Mass range.
The presence of the antigen-antibody complex were confirmed using High Mass MALDI detection. […]

[5] = molecular target: T4, Canine IL-4 with C-terminal Avi-HIS tag; assay: BLI (OCTET HTX); biotin-mAb on SA biosensors, cIL-4 in solution; 1:1 model
Experimental: as §1

Binder | IL-13 IC50 (nM); inhibition of canine IL-13 mediated STAT6 phosphorylation in DH82 cells [1] [nM] | Kd [2] [nM] | koff [2] [s⁻¹] | kon [2] [M⁻¹ s⁻¹] | IL-4 IC50 (nM); inhibition of canine IL-4 mediated STAT6 phosphorylation in DH82 cells [3] [nM] | binding result [4] | Kd [5] [nM] | koff [5] [s⁻¹] | kon [5] [M⁻¹ s⁻¹]
B1 | 94.1 | 1.19 | 0.0018 | 1.3e+06 | – | – | – | – | –
B2 | 47.9 | – | – | – | – | – | – | – | –
B3 | – | – | – | – | 0.91 | binds | – | – | –
B4 | 13.1 | 5.58 | 0.00148 | 252000 | – | – | – | – | –
B5 | 4.44 | 5.45 | 0.000793 | 162000 | – | – | – | – | –
B6 | 97.5 | 8.12 | 0.00208 | 256000 | – | – | – | – | –
B7 | – | – | – | – | 3.15 | – | 0.846 | 0.00105 | 1.24e+06
